Biological target: Oslo-2 mAb
Test: peptide array on cellulose membrane (epitope mapping)
Conditions: chain shown with the change; duplicates; parent: est. 12000; read off a plot

Sequence of Oslo-2 mAb (chain, as listed by the source, chain 1 of 2): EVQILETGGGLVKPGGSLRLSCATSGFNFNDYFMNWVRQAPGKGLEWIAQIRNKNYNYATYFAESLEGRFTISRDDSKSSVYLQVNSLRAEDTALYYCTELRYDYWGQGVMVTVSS
Sequence of Oslo-2 mAb (chain, as listed by the source, chain 2 of 2): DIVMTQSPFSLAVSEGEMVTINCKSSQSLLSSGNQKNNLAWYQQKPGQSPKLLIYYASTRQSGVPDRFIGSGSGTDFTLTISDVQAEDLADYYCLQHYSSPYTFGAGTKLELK

## GVKPDLSYMPIWKFPDAAGA [20 mer epitope peptide … (region 603-622 in HER2) E619A; E620A]
  response: 1700

From article PMC9563779
